Assay [1] has as its target tES-GFPuv, GFPuv fused to the C-terminus of a histidine-tagged tES subunit (Archaeoglobus fulgidus | not stated) (UniProt O29424). Put plainly: pull-down + SEC; tES(+) and His-tagged tES-POI coexpressed in E. coli BL21(DE3); Ni-NTA by the His tag of the fusion subunit, then SEC (25 mM Tris-HCl, pH 8); ratio by gel densitometry of purified fractions.
Assay [2] addresses tES-HRPc, truncated horseradish peroxidase fused to the C-terminus of a histidine-tagged tES subunit (Archaeoglobus fulgidus | horseradish) (UniProt O29424). The description is as above.
Assay [3] deals with tES-rLuc, Renilla luciferase fused to the C-terminus of a histidine-tagged tES subunit (Archaeoglobus fulgidus | Renilla) (UniProt O29424). The description is as above.
The target of assay [4] is tES-GFPuv, GFPuv fused to the C-terminus of a histidine-tagged tES subunit (Archaeoglobus fulgidus | not stated) (UniProt O29424).

As to “tES(+) thermostable exoshell subunit, net positive cavity (from UniProt O29424 1-164)”, the stoichiometry N (tES subunits per tES-POI fusion subunit) in assay [1] came to 32; in assay [2], 19; in assay [3] it was 20.

Consider “tES(+)F116H, pH-titratable exoshell subunit (from UniProt O29424 1-164)”, for which, in assay [4], the GFPuv fluorescence after in vitro folding; molar ratios of tES(+)F116H subunits to tES-GFPuv from 0:1 to 90:1, highest at 90:1 was 100 fold.

(Values after PMC5682286.)
